In patent US20240035010, “COMPOSITIONS COMPRISING A VARIANT POLYPEPTIDE AND USES THEREOF” (Arbor Biotechnologies, Inc., published 2024) one finds indel editing activity data, which are given here for 2 molecules.

Data set [1] concerns the target T1, variant nuclease D55G/E736G combination (P14R, D32R, I61R, E311R, D55G, E736G).
T1 chain: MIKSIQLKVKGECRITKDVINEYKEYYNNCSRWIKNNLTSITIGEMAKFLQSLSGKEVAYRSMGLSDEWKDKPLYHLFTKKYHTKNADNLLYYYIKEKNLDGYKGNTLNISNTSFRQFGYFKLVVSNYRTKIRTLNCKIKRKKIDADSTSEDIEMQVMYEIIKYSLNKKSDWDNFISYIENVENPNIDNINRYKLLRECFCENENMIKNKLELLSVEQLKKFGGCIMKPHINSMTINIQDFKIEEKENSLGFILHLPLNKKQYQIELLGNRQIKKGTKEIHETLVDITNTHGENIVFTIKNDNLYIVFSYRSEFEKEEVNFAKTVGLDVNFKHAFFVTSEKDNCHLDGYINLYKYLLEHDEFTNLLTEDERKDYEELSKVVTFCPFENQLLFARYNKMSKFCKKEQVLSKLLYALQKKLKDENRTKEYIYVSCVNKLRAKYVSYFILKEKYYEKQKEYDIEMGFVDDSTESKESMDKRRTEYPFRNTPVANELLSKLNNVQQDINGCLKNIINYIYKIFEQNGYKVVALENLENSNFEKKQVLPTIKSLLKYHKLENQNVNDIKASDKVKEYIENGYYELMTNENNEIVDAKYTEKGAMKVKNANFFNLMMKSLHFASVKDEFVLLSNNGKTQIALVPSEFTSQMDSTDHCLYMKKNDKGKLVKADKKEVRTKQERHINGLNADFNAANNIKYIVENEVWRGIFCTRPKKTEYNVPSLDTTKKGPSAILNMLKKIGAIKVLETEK
Put plainly: cell_activity; PAM 5'-ATTG-3'. The settings on record: tags: pcDNA3.1 expression.

In data set [2] the target is T2, variant nuclease SEQ ID NO: 53 (P14R, D32R, I61R, E311R, T338G, E736G).
T2 chain: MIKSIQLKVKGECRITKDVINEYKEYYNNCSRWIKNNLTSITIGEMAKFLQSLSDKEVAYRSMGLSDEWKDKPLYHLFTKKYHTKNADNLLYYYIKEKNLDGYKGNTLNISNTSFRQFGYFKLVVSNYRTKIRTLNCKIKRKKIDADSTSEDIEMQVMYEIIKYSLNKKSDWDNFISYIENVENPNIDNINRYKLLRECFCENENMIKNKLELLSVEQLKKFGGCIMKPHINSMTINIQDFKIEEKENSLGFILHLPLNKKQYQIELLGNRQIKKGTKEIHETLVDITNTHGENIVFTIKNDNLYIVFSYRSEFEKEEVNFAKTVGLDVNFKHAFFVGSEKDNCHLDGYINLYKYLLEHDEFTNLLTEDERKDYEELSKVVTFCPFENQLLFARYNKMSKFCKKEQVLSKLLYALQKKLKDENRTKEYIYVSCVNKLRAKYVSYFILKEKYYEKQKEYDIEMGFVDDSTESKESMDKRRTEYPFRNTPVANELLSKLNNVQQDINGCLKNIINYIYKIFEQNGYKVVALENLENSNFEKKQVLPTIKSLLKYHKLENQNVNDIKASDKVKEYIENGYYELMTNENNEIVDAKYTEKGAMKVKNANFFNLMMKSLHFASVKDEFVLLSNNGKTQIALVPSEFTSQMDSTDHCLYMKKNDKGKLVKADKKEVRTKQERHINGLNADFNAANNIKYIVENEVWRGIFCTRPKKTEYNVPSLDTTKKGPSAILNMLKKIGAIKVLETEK
Put plainly: cell_activity; % indels; HEK293T; PAM 5'-TTTA-3'. Particulars: tags: pcDNA3.1 expression.

B1: EMX1 crRNA ; EMX1 target (ssRNA ; dsDNA)
RNA: CUUGUUGUAUAUGUCCUUUUAUAGGUAUUAAACAACCCGCCGCUUCCUGAGCCAUC
DNA 1: CCGCCGCTTCCTGAGCCATC
DNA 2: GATGGCTCAGGAAGCGGCGG
B1: the indel editing activity in data set [1] is 10.5 fold of WT.

B2: VEGFA crRNA ; VEGFA target (ssRNA ; dsDNA)
RNA: CUUGUUGUAUAUGUCCUUUUAUAGGUAUUAAACAACUCCAGACCACCAAUGGGCAC
DNA 1: TCCAGACCACCAATGGGCAC
DNA 2: GTGCCCATTGGTGGTCTGGA
Consider B2, for which, in data set [2], the indel editing activity is 3.04 fold of WT.
